Tests used:
[1] = biological target: myc-tagged β^+/his6-tagged β^C heterodimer (E. coli) (UniProt P0A988); assay: SPR
[2] = biological target: β^+–δ1 complex (his6-tagged β^+ homodimer with one tightly bound δ) (E. coli) (UniProt P0A988); assay: SPR

off rate relative to that from β^+ [1] | Kd [1] | koff [1] | kon [1] | stoichiometry N [1] | Kd [2] | Substance
2 fold | – | – | – | – | – | DnaX clamp loader complex, γ3δδ′χψ form (from UniProt P06710-2;P28630;P28631;P28905;P28632)
– | 0.172 µM | 0.0125 s⁻¹ | 72700 M⁻¹ s⁻¹ | – | – | α catalytic subunit of Pol III (from UniProt P10443 1-1160) (enzyme)
– | 0.0156 µM | – | – | 1 | 0.16 µM | δ subunit of the DnaX clamp loader complex (from UniProt P28630 1-343) (natural protein)

Source: PMC2685083
